Source: patent publication USRE39057

What was measured:
[1] = target: CXCR4 (Fusin), human (human) (UniProt P61073); assay: cell-based or functional assay
[2] = target: CXCR4 (Fusin), human (human) (UniProt P61073); assay: flow cytometry, H9 cells
[3] = target: CXCR4 (Fusin), human (human) (UniProt P61073); assay: flow cytometry, MT-2 cells
[4] = target: CXCR4 (Fusin), human (human) (UniProt P61073); assay: flow cytometry, C8166 cells
[5] = target: CXCR4 (Fusin), human (human) (UniProt P61073); assay: flow cytometry, MOLT-4 cells
[6] = target: CXCR4 (Fusin), human (human) (UniProt P61073); assay: flow cytometry, RD/CD4 cells
[7] = target: CXCR4 (Fusin), human (human) (UniProt P61073); assay: flow cytometry, Sup T1 cells
[8] = target: CXCR4 (Fusin), human (human) (UniProt P61073); assay: flow cytometry, HeLa/CD4 cells
[9] = target: CXCR4 (Fusin), human (human) (UniProt P61073); assay: flow cytometry, Daudi/CD4 cells
[10] = target: CXCR4 (Fusin), human (human) (UniProt P61073); assay: Scatchard analysis of 125I-12G5 binding; RD cells
[11] = target: CXCR4 (Fusin), human (human) (UniProt P61073); assay: Scatchard analysis of 125I-12G5 binding; BC7 cells
[12] = target: CXCR4 (Fusin), human (human) (UniProt P61073); assay: FACS, 10 µg/ml 12G5, Sup-T1 cells infected by HIV-2/vcp
[13] = target: CXCR4 (Fusin), human (human) (UniProt P61073); assay: flow cytometry, PBMC cultured 5 days, average of 10 batches
[14] = target: CXCR4 (Fusin), human (human) (UniProt P61073); assay: flow cytometry, macrophages cultured 5 days, average of 3 batches
[15] = target: HA-tagged CXCR4 (HA-tagged Fusin) on CHO-K1 cells (influenza; human) (UniProt P61073); assay: Scatchard analysis of 125I-12G5 binding; CHO cells expressing HA-tagged Fusin
[16] = target: CXCR4 (Fusin), human (human) (UniProt P61073); assay: Scatchard analysis of 125I-12G5 surface binding at 4 C; RD or BC7 cells (endogenous CXCR4)
[17] = target: HA-tagged CXCR4 (HA-tagged Fusin) on CHO-K1 cells (influenza; human) (UniProt P61073); assay: Scatchard analysis of 125I-12G5 surface binding at 4 C; CHO cells expressing HA-tagged Fusin
[18] = target: CXCR4 (Fusin), human (human) (UniProt P61073); assay: FACS, 10 µg/ml 12G5, BC7 cells chronically infected by HIV-2/vcp; loss of surface Fusin or blocking of the epitope not told apart
[19] = target: CXCR4 (Fusin), human (human) (UniProt P61073); assay: FACS, 10 µg/ml 12G5, Daudi cells chronically infected by HIV-2/vcp; loss of surface Fusin or blocking of the epitope not told apart
[20] = target: CXCR4 (Fusin), human (human) (UniProt P61073); assay: FACS, 10 µg/ml 12G5, Nalm6 cells chronically infected by HIV-2/vcp; loss of surface Fusin or blocking of the epitope not told apart

Substance: MAb 12G5 (antibody)
- antibody concentration required to inhibit HIV-2/vcp infection of CD4-negative BC7, Nalm6 and Daudi cells (RT activity) [1]: 5 to 20 µg/mL
- antibody concentration that inhibited CP-MAC infection of Sup-T1 cells (RT activity) [1]: 1 µg/mL
- percentage of cells expressing CXCR4 by 12G5 staining [2]: 51.4%
- percentage of cells expressing CXCR4 by 12G5 staining [3]: 99%
- percentage of cells expressing CXCR4 by 12G5 staining [4]: 72%
- percentage of cells expressing CXCR4 by 12G5 staining [5]: 89.5%
- percentage of cells expressing CXCR4 by 12G5 staining [6]: 93.3%
- percentage of cells expressing CXCR4 by 12G5 staining [7]: 81.5%
- percentage of cells expressing CXCR4 by 12G5 staining [8]: 35.5%
- percentage of cells expressing CXCR4 by 12G5 staining [9]: 88.4%
- antibody molecules bound per cell (antibody molecules per cell) [10]: 400000
- antibody molecules bound per cell (antibody molecules per cell) [11]: 50000
- percent reduction of 12G5 binding on HIV-2/vcp-infected against uninfected cells [12]: 75%
- percentage of cells expressing CXCR4 by 12G5 staining [13]: 27.8%
- percentage of cells expressing CXCR4 by 12G5 staining [14]: 5.2%
- antibody molecules bound per cell (antibody molecules per cell) [15]: 1e+06
- Kd [16]: 1 to 5 nM
- Kd [17]: 1 to 5 nM
- percent reduction of 12G5 binding on HIV-2/vcp-infected against uninfected cells [18]: 98%
- percent reduction of 12G5 binding on HIV-2/vcp-infected against uninfected cells [19]: 79%
- percent reduction of 12G5 binding on HIV-2/vcp-infected against uninfected cells [20]: 87%
